# From paper PMC8266614, “Stabilization of Hfq-mediated translational repression by the co-repressor Crc in Pseudomonas aeruginosa” (Nucleic Acids Research, 2021)
# Biological target: T1, Hfq_(S65C)-Flag (P. aeruginosa, UniProt Q9HUM0 1-82, S65C)
# T1 construct: also called Hfq S65C-Flag protomer of Hfq*; source: E. coli JW4130F'Δhfq(pKEHfqPae); not shown: FLAG, C-terminal, kept
# Assay: co-IP
# Details: both partners purified
binder,measurement,value
"P. aeruginosa Hfq, wild type (natural protein, RNA chaperone Hfq of Pseudomonas aeruginosa, wild type, from plasmid pKEHfqPae; In the row with m4 the wild-type protomer inside the mixed hexamer is meant; also called Hfq wt; Pae Hfq; source: for Hfq* co-produced with Hfq_(S65C)-Flag in the same strain) MSKGHSLQDPYLNTLRKERVPVSIYLVNGIKLQGQIESFDQFVILLKNTVSQMVYKHAISTVVPSRPVRLPSGDQPAEPGNA",stoichiometry N,1 Hfq wt per Hfq_(S65C)-Flag
